Assays:
[1] = molecular target: hFcγRIIIa-V158 (human) (UniProt P08637); assay: SPR, further study
[2] = molecular target: hFcγRIIIa-V158 (human) (UniProt P08637); assay: SPR (Carterra LSA), protein AG capture
[3] = molecular target: hFcγRIIIa-V158 (human) (UniProt P08637); assay: SPR (Carterra LSA), captured on protein A/G, hFcγRIIIa-V158 injected, 1:1 fit [Cont. 7]
[4] = molecular target: hFcγRIIIa-V158 (human) (UniProt P08637); assay: SPR (Carterra LSA), captured on protein A/G, hFcγRIIIa-V158 injected, 1:1 fit
[5] = molecular target: hFcγRIIIa-V158 (human) (UniProt P08637); assay: SPR (Carterra LSA), captured on protein A/G, hFcγRIIIa-V158 injected, 1:1 fit [Cont. 3]
[6] = molecular target: hFcγRIIIa-V158 (human) (UniProt P08637); assay: SPR (Carterra LSA), captured on protein A/G, hFcγRIIIa-V158 injected, 1:1 fit [Cont. 5]

Chain of hFcγRIIIa-V158 (human) (P08637 17-208 F176V limits assumed): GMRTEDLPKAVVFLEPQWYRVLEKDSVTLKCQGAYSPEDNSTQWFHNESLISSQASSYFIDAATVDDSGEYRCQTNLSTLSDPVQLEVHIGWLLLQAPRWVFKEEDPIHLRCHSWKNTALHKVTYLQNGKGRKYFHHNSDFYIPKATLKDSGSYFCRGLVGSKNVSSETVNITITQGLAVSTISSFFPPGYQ

Row | Fold Change vs. WT [1] [fold] | Kd [1] [nM] | koff [1] [s⁻¹] | kon [1] [M⁻¹ s⁻¹] | Kd [2] [nM] | Substance | also measured
1 | – | 95.7 | – | – | – | H268D, S298A (antibody) | –
2 | – | 221 | – | – | – | H268D, Y373W (antibody) | –
3 | 5.8 | 82.6 | 0.0273 | 332000 | – | H268D, Y373W, S298A (antibody) | –
4 | – | 55 | – | – | 31.1 | H268D_L251Q_S298A (antibody) | –
5 | – | 477 | – | – | 289 | WT (from UniProt P01857 1-330) (antibody) | Kd [3]: 350 nM; Kd [4]: 350 nM; Kd [5]: 290 nM

More lines, now with the values behind:

Row | Substance | Fold Change vs. WT [1] [fold] | Kd [1] [nM] | koff [1] [s⁻¹] | kon [1] [M⁻¹ s⁻¹] | Kd [2] [nM] | also measured
6 | H268D, S267D, A339T (antibody) | 4 | 119 | 0.0525 | 442000 | – | –
7 | H268D_A330Y_D376V (antibody) | – | 152 | – | – | 87.6 | –
8 | H268D_L251Q_L314M_S298A (antibody) | 7.8 | 60.8 | 0.0279 | 509000 | 24.6 | Fold-change relative to WT [2]: 11.8 fold; koff [2]: 0.0125 s⁻¹; kon [2]: 509000 M⁻¹ s⁻¹
9 | H268D_L314T (antibody) | 3.8 | 125 | 0.0481 | 384000 | 83 | Fold-change relative to WT [2]: 3.5 fold; koff [2]: 0.026 s⁻¹; kon [2]: 314000 M⁻¹ s⁻¹
10 | H268E, L314T, D376V (antibody) | – | 159 | – | – | – | –
11 | adalimumab (antibody) | – | – | – | – | – | Kd [6]: 310 nM; Kd [3]: 190 nM

Source: patent US20250154262A1
